Results taken from patent US20210301011A1, “COMPOSITION FOR PROPHYLAXIS OR TREATMENT OF IL-8 RELATED DISEASES” (CHUGAI SEIYAKU KABUSHIKI KAISHA, priority 2016, published 2021).

Tests used:
human FcγRIIIa = target: T1, human FcγRIIIa (Homo sapiens, UniProt P08637); assay: Binding to soluble FcγR (BIACORE T200); settings: 20° C., HBS-EP+
T1 construct: the soluble forms of FcγRIa and FcγRIIIa in human and cynomolgus monkey; His tag; made in house
Protocol: (§1) Soluble FcγRIa and FcγRIIIa in both human and cynomolgus monkey were produced in the form of His-tagged molecules by methods known to those of ordinary skill in the art. […] Next, soluble FcγRIa or FcγRIIIa was injected with a running buffer (used as a reference solution), and was made to interact with the antibodies captured onto the sensor chip. HBS-EP+(GE Healthcare) was used as the running buffer, and HBS-EP+ was also used to dilute the soluble FcγRIa or FcγRIIIa. […] All measurements were carried out at 20° C.

human FcγRIa = target: T2, human FcγRIa (Homo sapiens, UniProt P12314); assay: Binding to soluble FcγR (BIACORE T200); settings: 20° C., HBS-EP+
T2 construct: the soluble forms of FcγRIa and FcγRIIIa in human and cynomolgus monkey; His tag; made in house
Protocol: as §1

cynomolgus monkey FcγRIa = assay: Binding to soluble FcγR (BIACORE T200); settings: 20° C., HBS-EP+
Protocol: as §1

[1] = target: T3, cynomolgus monkey FcγRIIIa (Macaca fascicularis, UniProt Q8SPW2); assay: Binding to soluble FcγR (BIACORE T200); settings: 20° C., HBS-EP+
T3 construct: the soluble forms of FcγRIa and FcγRIIIa in human and cynomolgus monkey; His tag; made in house
Protocol: as §1

endometriosis lesions = assay type: in vivo, cynomolgus monkeys
Text: Female cynomolgus monkeys of 8 to 14 years of age with regular sexual cycle (provided by the Tsukuba Primate Research Center at the National Institutes of Biomedical Innovation, Health and Nutrition) were laparotomized under anesthesia during the period corresponding to the luteal phase. The uterine corpus was removed by dissecting in a V shape. Then, the uterine corpus was cut into 5 to 10 mm cubes while leaving the smooth muscle layer of the uterus, and one and two pieces were transplanted onto the right abdominal wall and left abdominal wall (cranial and caudal sides), respectively, in such a manner that the endometrium part is in contact with the peritoneum by suturing with an absorbable suture and formed the transplant. After excision, the uterus was sutured with absorbable suture. Then, the remaining endometrial tissues were finely cut and suspended in 5 ml of 2 ng/ml Hepatocyte Growth Factor solution (R&D systems), and this was seeded in the peritoneal cavity for transplantation, followed by closure of the abdomen. Anesthesia was performed using balanced anesthesia of ketamine/xylazine (mixed at an adequate ratio of about 2:1); however, anesthesia was maintained with isoflurane depending on the maintenance period of anesthesia. The body temperature was maintained and controlled during surgery using a heating pad and the condition was monitored electrocardiographically. The antagonist Antisedan (at roughly the same amount as that of xylazine) and antibiotic cephradine were administered at the time of awakening after surgery. The pain reliever Zalban was administered for two days after surgery, and the monkeys were observed regularly every day to confirm the absence of post-surgical abnormalities. In laparoscopic observation, anesthesia and post-surgical monitoring were also performed in the same way.
Laparoscopic observation was carried out four months, nine months (3 months after administration), and 12 months (6 months after administration) following the surgical induction of endometriosis described above, and the pathological conditions of endometriosis were assessed as follows.
The abdomen was incised in the median line under anesthesia, and laparoscopic observation was performed by inserting a trocar and then introducing a laparoscope. The laparoscope was connected to a video system (KARL STORZ) and a monitor. The monitor was used for intraperitoneal observation, and the video system was used for recording. Then, the peritoneal cavity was filled with carbon dioxide gas using Intra-abdominal Insufflation Unit (OLYMPUS) to expand the abdomen, and graduated bars and forceps were inserted from the ventral portion. The size of the lesion was measured using the graduated bar or graduated forceps.
The sizes (width, height, and depth) of nodular lesions formed by suturing the endometrial tissues were measured and the volumes were calculated based on: width (mm)×height (mm)×depth (mm). The lesions and adhesion formed by seeding endometrial tissues after fine cutting were assessed for the site, area, and depth of adhesion and the size of lesion by laparoscopic observation based on modified r-AFS score modified for monkeys from the r-AFS score for clinical use.
1. The item on adhesion to the vesicouterine pouch was added, because in the monkey model, the frequency of adhesion to the urinary bladder is higher than in humans. The method for assessing adhesion to the urinary bladder was the same scoring as that used for adhesion to the Douglas' pouch. 2. Since monkey's body and organ sizes are smaller than those of humans, the criteria of lesion size scoring were altered to: <3 mm, 3-10 mm, and >10 mm
The grouping was performed in two separate times. After randomization based on the mean volume of nodular lesions and the number of measurable lesions in each individual, eventually, six individuals were assigned to vehicle group and seven individuals were assigned to the antibody H1009/L395-F1974m-administered group. […]

T1 sequence (P08637 17-208 limits assumed): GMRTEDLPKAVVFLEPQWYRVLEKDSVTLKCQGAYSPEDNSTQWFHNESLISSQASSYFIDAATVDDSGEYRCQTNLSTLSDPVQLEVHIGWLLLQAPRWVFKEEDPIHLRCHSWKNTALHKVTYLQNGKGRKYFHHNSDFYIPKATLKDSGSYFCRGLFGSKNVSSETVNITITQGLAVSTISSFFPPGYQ
T2 sequence (P12314 16-292 limits assumed): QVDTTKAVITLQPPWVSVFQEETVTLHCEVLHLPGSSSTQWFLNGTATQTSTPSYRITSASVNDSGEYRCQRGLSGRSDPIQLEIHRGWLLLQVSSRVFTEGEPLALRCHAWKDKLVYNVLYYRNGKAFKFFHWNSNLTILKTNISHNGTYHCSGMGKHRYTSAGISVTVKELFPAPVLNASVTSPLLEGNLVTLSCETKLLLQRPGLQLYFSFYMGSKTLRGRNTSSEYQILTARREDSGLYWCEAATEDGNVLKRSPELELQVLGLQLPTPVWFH
T3 sequence (Q8SPW2 17-208 limits assumed): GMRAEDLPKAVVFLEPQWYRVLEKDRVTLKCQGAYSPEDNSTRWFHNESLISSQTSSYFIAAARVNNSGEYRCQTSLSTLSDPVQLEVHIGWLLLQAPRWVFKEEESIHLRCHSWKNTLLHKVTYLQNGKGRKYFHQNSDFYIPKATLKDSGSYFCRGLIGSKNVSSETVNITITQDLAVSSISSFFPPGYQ

B1: H1009/L395-F1974m: H1009-F1974m (SEQ ID NO:36) heavy chain, L395-kOMT light chain; the anti-IL-8 antibody of Table 29 (antibody)
heavy: QVQLVESGGGLVQPGGSLRLSCAASGFTFSDYYLSWVRQAPGKGLEWVGLIRNKDNYHTPEYSASVKGRFTISRDDSKNSLYLTMSDLKTEDTAVYYCARENHRYDVELAYWGQGTLVTVSSASTKGPSVFPLAPSSKSTSGGTAALGCLVKDYFPEPVTVSWNSGALTSGVHTFPAVLQSSGLYSLSSVVTVPSSSLGTQTYICNVNHKPSNTKVDKKVEPKSCDKTHTCPPCPAPELRRGPSVFLFPPKPKDTLMISRTPEVTCVVVDVSHEDPEVKFNWYVDGVEVHNAKTKPREEQYNSTYRVVSVLTVLHQDWLNGKEYKCKVSNKGLPSSIEKTISKAKGQPREPQVYTLPPSREEMTKNQVSLTCLVKGFYPSDIAVEWESNGQPENNYKTTPPVLDSDGSFFLYSKLTVDKSRWQQGNVFSCSVLHEALHAHTTRKELSLSP
light: DIQMTQSPSSLSASVGDRVTITCRASEIIYSYLAWYQQKPGKAPKLLIYKAKTHADGVPSRFSGSGSGTDFTFTISSLQPEDIATYYCKHHFGFPRTFGQGTKVEIKRTVAAPSVFIFPPSDEQLKSGTASVVCLLNNFYPREAKVQWKVDNALQSGNSQESVTEQDSKDSTYSLSSTLTLSKADYEKHKVYACEVTHQGLSSPVTKSFNRGEC
- binding to soluble human FcγRIIIa (human FcγRIIIa): not to bind to any of the FcγRs
- binding to soluble human FcγRIa (human FcγRIa): not to bind to any of the FcγRs
- binding to soluble cynomolgus monkey FcγRIa (cynomolgus monkey FcγRIa): not to bind to any of the FcγRs
- binding to soluble cynomolgus monkey FcγRIIIa [1]: not to bind to any of the FcγRs
- frequency of nodular lesions of type A: proliferative, ≥500 mm3 (endometriosis lesions; 10 mg/kg i.v. q4w, 6 months): 0%
- frequency of nodular lesions of type B: proliferative, <500 mm^3 (endometriosis lesions; 10 mg/kg i.v. q4w, 6 months): 8%
- frequency of nodular lesions of type C: no change (endometriosis lesions; 10 mg/kg i.v. q4w, 6 months): 33%
- frequency of nodular lesions of type D: decreased (endometriosis lesions; 10 mg/kg i.v. q4w, 6 months): 58%
- nodular lesions of type A: proliferative, ≥500 mm3 (lesions/total lesions) (endometriosis lesions; 10 mg/kg i.v. q4w, 6 months): (0/12)
- nodular lesions of type B: proliferative, <500 mm^3 (lesions/total lesions) (endometriosis lesions; 10 mg/kg i.v. q4w, 6 months): (1/12)
- nodular lesions of type C: no change (lesions/total lesions) (endometriosis lesions; 10 mg/kg i.v. q4w, 6 months): (4/12)
- nodular lesions of type D: decreased (lesions/total lesions) (endometriosis lesions; 10 mg/kg i.v. q4w, 6 months): (7/12)
- change of size r-AFS score (endometriosis lesions; after vs before administration, compared to vehicle group): tended to decrease
- change of total r-AFS score (endometriosis lesions; after vs before administration, compared to vehicle group, p=0.0070): clearly decreased as compared to the vehicle group
- change of adhesion score (adhesion r-AFS score) (endometriosis lesions; after vs before administration, compared to vehicle group, p=0.0096): clearly decreased as compared to the vehicle group
- frequency of deep lesions (endometriosis gland ducts invaded up to the muscle layer of abdominal wall) (endometriosis lesions; anti-antibody-positive individuals excluded, vehicle 5/18 lesions): 1/11
- hemosiderin observed (lesions/total) (endometriosis lesions; antibody administration group, vehicle 9/16): 4/17
- hemosiderin observed (percent of lesions) (endometriosis lesions; antibody administration group, vehicle 56%): 24%
- total modified r-AFS score before and after administration (endometriosis lesions; scores recorded by the practitioner during laparoscopic surgery, P=0.875): the score did not change
